Measured values: IntAct's records for PubMed 10861283

B1: Merlin (Homo sapiens), P35240-3 (parent)
chain: MAGAIASRMSFSSLKRKQPKTFTVRIVTMDAEMEFNCEMKWKGKDLFDLVCRTLGLRETWFFGLQYTIKDTVAWLKMDKKVLDHDVSKEEPVTFHFLAKFYPENAEEELVQEITQHLFFLQVKKQILDEKIYCPPEASVLLASYAVQAKYGDYDPSVHKRGFLAQEELLPKRVINLYQMTPEMWEERITAWYAEHRGRARDEAEMEYLKIAQDLEMYGVNYFAIRNKKGTELLLGVDALGLHIYDPENRLTPKISFPWNEIRNISYSDKEFTIKPLDKKIDVFKFNSSKLRVNKLILQLCIGNHDLFMRRRKADSLEVQQMKAQAREEKARKQMERQRLAREKQMREEAERTRDELERRLLQMKEEATMANEALMRSEETADLLAEKAQITEEEAKLLAQKAAEAEQEMQRIKATAIRTEEEKRLMEQKVLEAEVLALKMAEESERRAKEADQLKQDLQEAREAERRAKQKLLEIATKPTYPPMNPIPAPLPPDIPSFNLIGDSLSFDFKDTDMKRLSMEIEKEKVEYMEKSKHLQEQLNELKTEIEALKLKERETALDILHNENSDRGGSSKHNTIKKPQAQGRRPICI

Assays:
HGS, O14964-1 = variants of: B1; details: with HGS
HGS, O14964-2 = variants of: B1; details: with HGS
Chain of HGS, O14964-2 (O14964 other isoform, or with tags, fused parts or gaps): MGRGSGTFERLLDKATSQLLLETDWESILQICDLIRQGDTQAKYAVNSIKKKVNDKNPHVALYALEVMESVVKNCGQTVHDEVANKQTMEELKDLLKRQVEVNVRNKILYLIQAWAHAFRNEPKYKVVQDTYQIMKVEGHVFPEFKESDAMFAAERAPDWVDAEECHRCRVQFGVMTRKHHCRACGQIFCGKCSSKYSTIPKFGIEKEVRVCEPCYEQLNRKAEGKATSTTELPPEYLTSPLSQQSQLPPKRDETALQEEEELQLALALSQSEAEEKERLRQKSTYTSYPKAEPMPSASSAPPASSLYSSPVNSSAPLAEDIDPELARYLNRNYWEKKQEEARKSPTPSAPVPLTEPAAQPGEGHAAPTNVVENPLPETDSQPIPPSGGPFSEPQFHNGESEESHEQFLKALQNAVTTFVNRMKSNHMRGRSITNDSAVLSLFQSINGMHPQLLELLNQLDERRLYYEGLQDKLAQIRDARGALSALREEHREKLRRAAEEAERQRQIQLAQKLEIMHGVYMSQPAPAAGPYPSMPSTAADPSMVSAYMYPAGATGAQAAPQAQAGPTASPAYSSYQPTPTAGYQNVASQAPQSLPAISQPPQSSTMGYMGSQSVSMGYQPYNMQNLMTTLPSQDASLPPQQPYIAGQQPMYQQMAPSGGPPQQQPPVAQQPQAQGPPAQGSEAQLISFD

Chain of HGS, O14964-1 (O14964 whole entry): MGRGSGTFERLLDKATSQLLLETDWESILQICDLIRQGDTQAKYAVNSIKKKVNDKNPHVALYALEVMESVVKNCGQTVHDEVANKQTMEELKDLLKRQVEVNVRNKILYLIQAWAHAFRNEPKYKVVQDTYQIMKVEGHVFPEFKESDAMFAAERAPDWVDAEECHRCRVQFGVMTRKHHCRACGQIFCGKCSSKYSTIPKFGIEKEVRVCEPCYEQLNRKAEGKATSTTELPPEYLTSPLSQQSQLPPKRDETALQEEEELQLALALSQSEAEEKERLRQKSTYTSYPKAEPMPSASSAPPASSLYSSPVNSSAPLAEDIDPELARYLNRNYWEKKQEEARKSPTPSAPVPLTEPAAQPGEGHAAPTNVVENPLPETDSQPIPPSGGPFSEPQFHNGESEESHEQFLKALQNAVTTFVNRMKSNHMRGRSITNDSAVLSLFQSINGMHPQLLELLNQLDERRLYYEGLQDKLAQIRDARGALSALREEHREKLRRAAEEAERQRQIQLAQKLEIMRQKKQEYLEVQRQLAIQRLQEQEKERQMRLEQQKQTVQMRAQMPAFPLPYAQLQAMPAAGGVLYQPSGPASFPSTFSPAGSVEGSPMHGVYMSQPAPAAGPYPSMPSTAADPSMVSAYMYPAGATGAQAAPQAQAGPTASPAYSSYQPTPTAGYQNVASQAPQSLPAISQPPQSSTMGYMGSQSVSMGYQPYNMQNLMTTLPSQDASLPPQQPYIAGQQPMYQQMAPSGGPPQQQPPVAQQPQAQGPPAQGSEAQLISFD

Variant | effect of a mutation on the interaction (HGS, O14964-1) | effect of a mutation on the interaction (HGS, O14964-2)
MAGAIASRMSFSSLKRKQPKTFTVRIVTMDAEMEFNCEMKWKGKDLFDLVCRTLGLRETWFFGLQYTIKDTVAWLKMDKKVLDHDVSKEEPVTFHFLAKFYPENAEEELVQEITQHLFFLQVKKQILDEKIYCPPEASVLLASYAVQAKYGDYDPSVHKRGFLAQEELLPKRVINLYQMTPEMWEERITAWYAEHRGRARDEAEMEYLKIAQDLEMYGVNYFAIRNKKGTELLLGVDALGLHIYDPENRLTPKISFPWNEIRNISYSDKEFTIKPLDKKIDVFKFNSSKLRVNKLILQLCIGNHDLFMRRRKADSLEVQQMKAQAREEKARKQMERQRLAREKQMREEAERTRDELERRLLQMKEEATMANEALMRSEETADLLAEKAQITEEEAKLLAQKAAEAEQEMQRIKATAIRTEEEKRLMEQKVLEAEVLALKMAEESERRAKEADQLKQDLQEAREAERRAKQKLLEIATKPTYPPMNPIPAPLPPDIPSFNLIGDSLSFDFKDTDMKRLSMEIEKEKVEYMEKSKHLQEPLNELKTEIEALKLKERETALDILHNENSDRGGSSKHNTIKKPQAQGRRPICI [Q538P] | decreasing interaction strength | decreasing interaction strength
MAGAIASRMSFSSLKRKQPKTFTVRIVTMDAEMEFNCEMKWKGKDLFDLVCRTLGLRETWFFGLQYTIKDTVAWLKMDKKVLDHDVSKEEPVTFHFLAKFYPENAEEELVQEITQHLFFLQVKKQILDEKIYCPPEASVLLASYAVQAKYGDYDPSVHKRGFLAQEELLPKRVINLYQMTPEMWEERITAWYAEHRGRARDEAEMEYLKIAQDLEMYGVNYFAIRNKKGTELLLGVDALGLHIYDPENRLTPKISFPWNEIRNISYSDKEFTIKPLDKKIDVFKFNSSKLRVNKLILQLCIGNHDLFMRRRKADSLEVQQMKAQAREEKARKQMERQRLAREKQMREEAERTRDELERRPLQMKEEATMANEALMRSEETADLLAEKAQITEEEAKLLAQKAAEAEQEMQRIKATAIRTEEEKRLMEQKVLEAEVLALKMAEESERRAKEADQLKQDLQEAREAERRAKQKLLEIATKPTYPPMNPIPAPLPPDIPSFNLIGDSLSFDFKDTDMKRLSMEIEKEKVEYMEKSKHLQEQLNELKTEIEALKLKERETALDILHNENSDRGGSSKHNTIKKPQAQGRRPICI [L360P] | decreasing interaction strength | decreasing interaction strength
MAGAIASRMSFSSLKRKQPKTFTVRIVTMDAEMEFNCEMKWKGKDRFDLVCRTLGLRETWFFGLQYTIKDTVAWLKMDKKVLDHDVSKEEPVTFHFLAKFYPENAEEELVQEITQHLFFLQVKKQILDEKIYCPPEASVLLASYAVQAKYGDYDPSVHKRGFLAQEELLPKRVINLYQMTPEMWEERITAWYAEHRGRARDEAEMEYLKIAQDLEMYGVNYFAIRNKKGTELLLGVDALGLHIYDPENRLTPKISFPWNEIRNISYSDKEFTIKPLDKKIDVFKFNSSKLRVNKLILQLCIGNHDLFMRRRKADSLEVQQMKAQAREEKARKQMERQRLAREKQMREEAERTRDELERRLLQMKEEATMANEALMRSEETADLLAEKAQITEEEAKLLAQKAAEAEQEMQRIKATAIRTEEEKRLMEQKVLEAEVLALKMAEESERRAKEADQLKQDLQEAREAERRAKQKLLEIATKPTYPPMNPIPAPLPPDIPSFNLIGDSLSFDFKDTDMKRLSMEIEKEKVEYMEKSKHLQEQLNELKTEIEALKLKERETALDILHNENSDRGGSSKHNTIKKPQAQGRRPICI [L46R] | decreasing interaction strength | decreasing interaction strength
MAGAIASRMSFSSLKRKQPKTFTVRIVTMDAEMEFNCEMKWKGKDLFDLVCRTLGLRETWFFGLQYTIKDTVAWLKMDKKVLDHDVSKEEPVTFHFLAKFYPENAEEELVQEITQHLFFLQVKKQILDEKIYCPPEASVLLASYAVQAKYGDYDPSVHKRGFLAQEELLPKRVINLYQMTPEMWEERITAWYAEHRGRARDEAEMEYLKIAQDLEMYGVNYFAIRNKKGTELLLGVDALGLHIYDPENRLTPKISFPWNEIRNISYSDKEFTIKPLDKKIDVFKFNSSKLRVNKLILQLCIGNHDLFMRRRKADSLEVQQMKAQAREEKARKQMERQRLAREKQMREEAERTRDELERRLLQMKEEATMANEALMRSEETADLLAEKAQITEEEAKLLAQKAAEAEQEMQRIKATAIRTEEEKRLMEQKVLEAEVLALKMAEESERRAKEADQLKQDLQEAREAERRAKQKLLEIATKPTYPPMNPIPAPLPPDIPSFNLIGDSLSFDFKDTDMKRLSMEIEKEKVEYMEKSKHPQEQLNELKTEIEALKLKERETALDILHNENSDRGGSSKHNTIKKPQAQGRRPICI [L535P] | decreasing interaction strength | decreasing interaction strength
